The target of the data set is His-YY1 full length (UniProt P25490 1-414). Kind of data set: EMSA; unlabelled probe competes; anti-His supershift; EMSA buffer 10% glycerol, 75 mM KCl, 10 mM HEPES (pH not stated), 5 mM MgCl2; 30 C, 30 min (Fig 7F: 15 min methylation + 15 min binding); 5% native PAGE in 0.5X TBE at 4 C. The note with it: protein: recombinant; tags: His (pET28b); label: 32P 5' end label on one strand; blunt. For orientation: Mobility shift assays separate free from complexed probe on a gel.
His-YY1 full length, sequence (P25490 whole entry): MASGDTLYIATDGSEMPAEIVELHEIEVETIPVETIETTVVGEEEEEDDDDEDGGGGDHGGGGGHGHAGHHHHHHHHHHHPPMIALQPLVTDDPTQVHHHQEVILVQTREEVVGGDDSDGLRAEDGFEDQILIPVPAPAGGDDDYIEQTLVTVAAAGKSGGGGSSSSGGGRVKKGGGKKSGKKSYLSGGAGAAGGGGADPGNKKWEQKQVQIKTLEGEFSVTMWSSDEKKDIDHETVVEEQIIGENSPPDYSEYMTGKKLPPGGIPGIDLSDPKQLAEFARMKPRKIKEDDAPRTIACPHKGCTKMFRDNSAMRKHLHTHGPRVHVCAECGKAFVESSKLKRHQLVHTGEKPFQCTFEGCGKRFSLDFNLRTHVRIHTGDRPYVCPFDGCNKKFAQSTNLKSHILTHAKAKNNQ

B1: CARM1proYY1_BS1 (dsDNA)
DNA 1: GGGACCTCTGGATCCCATGGTTGGATGGCTGGGGGGTGGA
DNA 2: TCCACCCCCCAGCCATCCAACCATGGGATCCAGAGGTCCC
B1: the binding result is “binds”.

Source of the values: publication PMC6557205, “Functional interplay between YY1 and CARM1 promotes oral carcinogenesis”.
